Experimental data as given in paper PMC7946940 (Nature Communications, 2021).
One block for each binder: values may come before it.

How the values were obtained:
Conditions in all cases: both partners purified
[1] = biological target: T1, human VPS34 complex I (VPS34/VPS15/Beclin 1/ATG14L) (human, UniProt Q8NEB9 1-887; Q99570 1-1358; Q14457 1-450; Q6ZNE5 1-492); assay: vesicle flotation assay; GTP-loaded Rab coupled by its C-terminal Cys to PE-MCC in 100 nm LUVs; 1.8 mM LUVs and 2 μM VPS34 complex, 25 mM HEPES pH 8.0, 150 mM NaCl, 1 mM TCEP, 30 min on ice; sucrose gradient, fractions on SDS-PAGE
T1 construct: VPS34, human, subunit of complex I; VPS15, human, subunit of complex I; Beclin 1, human, subunit of complex I; ATG14L, human, subunit of complex I; Heterotetramer; Purified on IgG beads and released with TEV protease; also called autophagy-specific complex I; source: Expi293F, transfected, purified (IgG beads, TEV protease elution, S200 gel filtration); copies: + + +

[2] = biological target: T2, human VPS34 complex II (VPS34/VPS15/Beclin 1/UVRAG) (human, UniProt Q8NEB9 1-887; Q99570 1-1358; Q14457 1-450; Q9P2Y5 1-699); assay: as above
T2 construct: VPS34, human, subunit of complex II; VPS15, human, subunit of complex II; Beclin 1, human, subunit of complex II; UVRAG, human, subunit of complex II; Heterotetramer; Purified on IgG beads and released with TEV protease; also called endocytic complex II; source: Expi293F, transfected, purified (IgG beads, TEV protease elution, S200 gel filtration); copies: + + +

[3] = biological target: T3, VPS34 (subunit of complex II–BATS in the cryo-ET structure) (human, UniProt Q8NEB9 1-887); assay: cryo-EM structure; cryo-ET and subtomogram averaging, 9.8 Å; 16 μM complex II–BATS on LUVs decorated with Rab5a–GTP
T3 construct: VPS34, human; source: Expi293F, transfected, purified within complex II–BATS

[4] = biological target: T4, VPS15 (subunit of complex II–BATS in the cryo-ET structure) (human, UniProt Q99570 1-1358); assay: as above
T4 construct: VPS15, human; source: Expi293F, transfected, purified within complex II–BATS

[5] = biological target: T2, human VPS34 complex II …; assay: cross-linking; proximity-triggered cross-linking by the unnatural amino acid BrCO6K at Rab5a residue 84; 50–100 molar excess of Rab5a over complex II, 100–200 molar excess over VPS34; overnight at 4 °C; SDS-PAGE and mass spectrometry of the bands
[6] = biological target: T5, human VPS34 alone (human, UniProt Q8NEB9 1-887); assay: as above
T5 construct: VPS34, human; printed mass 102 kDa; source: E. coli C41 (DE3), purified (Ni-NTA, heparin, gel filtration)

[7] = biological target: T2, human VPS34 complex II …; assay: HDX-MS; complex II (5 μM) alone or with 30 μM Rab5a-Q79L-GTP; 25 mM HEPES pH 8.0, 50 mM NaCl, 1 mM TCEP, room temperature; 3/30/300/3000 s

T2 sequence (Q8NEB9 whole entry, chain 1 of 4): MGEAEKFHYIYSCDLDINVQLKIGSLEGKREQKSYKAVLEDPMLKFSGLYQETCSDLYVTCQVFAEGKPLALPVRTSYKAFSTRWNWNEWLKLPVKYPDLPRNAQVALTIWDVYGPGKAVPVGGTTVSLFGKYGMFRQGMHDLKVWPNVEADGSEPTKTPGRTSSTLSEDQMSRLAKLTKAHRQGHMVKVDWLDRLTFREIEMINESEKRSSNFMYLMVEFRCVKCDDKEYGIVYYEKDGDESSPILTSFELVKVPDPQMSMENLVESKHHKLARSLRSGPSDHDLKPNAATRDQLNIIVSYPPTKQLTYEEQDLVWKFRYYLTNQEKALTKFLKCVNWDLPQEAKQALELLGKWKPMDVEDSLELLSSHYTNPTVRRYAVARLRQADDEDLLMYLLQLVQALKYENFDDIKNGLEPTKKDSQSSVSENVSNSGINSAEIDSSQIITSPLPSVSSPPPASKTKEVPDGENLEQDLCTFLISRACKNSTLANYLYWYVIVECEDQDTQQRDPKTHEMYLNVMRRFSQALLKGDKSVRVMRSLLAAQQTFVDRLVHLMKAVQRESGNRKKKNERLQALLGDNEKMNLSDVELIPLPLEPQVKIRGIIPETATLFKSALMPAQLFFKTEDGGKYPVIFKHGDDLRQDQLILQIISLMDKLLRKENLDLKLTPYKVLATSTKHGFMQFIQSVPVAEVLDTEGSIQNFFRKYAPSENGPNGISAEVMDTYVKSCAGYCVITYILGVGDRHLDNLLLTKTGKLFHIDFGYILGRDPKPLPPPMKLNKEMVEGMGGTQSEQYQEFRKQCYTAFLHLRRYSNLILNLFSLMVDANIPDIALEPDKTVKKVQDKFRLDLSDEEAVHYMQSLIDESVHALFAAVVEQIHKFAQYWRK
T2 sequence (Q99570 whole entry, chain 2 of 4): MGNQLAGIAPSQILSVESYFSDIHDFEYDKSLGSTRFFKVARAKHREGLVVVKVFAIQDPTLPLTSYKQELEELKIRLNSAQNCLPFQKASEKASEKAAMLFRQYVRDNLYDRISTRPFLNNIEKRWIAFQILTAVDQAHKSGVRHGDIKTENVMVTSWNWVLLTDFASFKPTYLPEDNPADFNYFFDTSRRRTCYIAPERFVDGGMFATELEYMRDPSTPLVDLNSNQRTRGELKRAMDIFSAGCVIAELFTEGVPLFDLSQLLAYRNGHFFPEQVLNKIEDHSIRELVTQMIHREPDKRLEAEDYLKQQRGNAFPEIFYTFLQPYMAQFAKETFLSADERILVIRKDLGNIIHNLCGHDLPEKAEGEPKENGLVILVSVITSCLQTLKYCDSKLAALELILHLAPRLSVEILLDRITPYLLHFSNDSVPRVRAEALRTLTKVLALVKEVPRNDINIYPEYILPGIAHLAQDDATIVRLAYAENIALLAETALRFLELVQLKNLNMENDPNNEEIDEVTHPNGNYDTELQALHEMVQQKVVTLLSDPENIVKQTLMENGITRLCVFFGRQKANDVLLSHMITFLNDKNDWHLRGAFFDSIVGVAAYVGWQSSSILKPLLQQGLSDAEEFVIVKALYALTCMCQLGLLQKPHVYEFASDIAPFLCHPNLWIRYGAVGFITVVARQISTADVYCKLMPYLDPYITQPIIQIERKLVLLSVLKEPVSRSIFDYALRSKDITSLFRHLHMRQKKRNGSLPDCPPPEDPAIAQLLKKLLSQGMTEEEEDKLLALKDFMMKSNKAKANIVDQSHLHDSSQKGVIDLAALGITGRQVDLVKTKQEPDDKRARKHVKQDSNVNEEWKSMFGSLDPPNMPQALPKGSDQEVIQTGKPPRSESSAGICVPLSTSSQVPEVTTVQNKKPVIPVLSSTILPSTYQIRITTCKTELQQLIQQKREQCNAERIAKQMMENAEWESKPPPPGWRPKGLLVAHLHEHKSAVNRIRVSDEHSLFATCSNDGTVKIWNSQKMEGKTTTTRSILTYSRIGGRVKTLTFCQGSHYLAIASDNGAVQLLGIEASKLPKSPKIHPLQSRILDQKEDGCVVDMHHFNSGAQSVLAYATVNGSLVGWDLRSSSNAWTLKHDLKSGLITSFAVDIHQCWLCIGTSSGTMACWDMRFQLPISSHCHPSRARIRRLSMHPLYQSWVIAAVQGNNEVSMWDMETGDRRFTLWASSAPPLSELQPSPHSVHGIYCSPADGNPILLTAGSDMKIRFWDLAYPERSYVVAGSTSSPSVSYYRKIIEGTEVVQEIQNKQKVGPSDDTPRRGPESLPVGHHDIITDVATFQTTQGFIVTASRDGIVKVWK
T2 sequence (Q14457 whole entry, chain 3 of 4): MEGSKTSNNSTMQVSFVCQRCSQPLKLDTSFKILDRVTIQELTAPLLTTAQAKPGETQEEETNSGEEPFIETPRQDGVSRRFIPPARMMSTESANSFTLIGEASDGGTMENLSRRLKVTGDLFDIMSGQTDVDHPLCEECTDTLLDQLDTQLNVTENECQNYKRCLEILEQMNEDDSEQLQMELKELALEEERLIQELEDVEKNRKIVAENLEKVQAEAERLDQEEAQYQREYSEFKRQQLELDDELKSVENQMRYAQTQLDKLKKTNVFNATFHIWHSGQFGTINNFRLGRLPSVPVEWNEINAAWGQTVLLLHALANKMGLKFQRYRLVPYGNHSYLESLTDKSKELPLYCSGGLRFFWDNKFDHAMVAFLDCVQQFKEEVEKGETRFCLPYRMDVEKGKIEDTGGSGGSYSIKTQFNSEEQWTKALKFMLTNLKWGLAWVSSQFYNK
T2 sequence (Q9P2Y5 whole entry, chain 4 of 4): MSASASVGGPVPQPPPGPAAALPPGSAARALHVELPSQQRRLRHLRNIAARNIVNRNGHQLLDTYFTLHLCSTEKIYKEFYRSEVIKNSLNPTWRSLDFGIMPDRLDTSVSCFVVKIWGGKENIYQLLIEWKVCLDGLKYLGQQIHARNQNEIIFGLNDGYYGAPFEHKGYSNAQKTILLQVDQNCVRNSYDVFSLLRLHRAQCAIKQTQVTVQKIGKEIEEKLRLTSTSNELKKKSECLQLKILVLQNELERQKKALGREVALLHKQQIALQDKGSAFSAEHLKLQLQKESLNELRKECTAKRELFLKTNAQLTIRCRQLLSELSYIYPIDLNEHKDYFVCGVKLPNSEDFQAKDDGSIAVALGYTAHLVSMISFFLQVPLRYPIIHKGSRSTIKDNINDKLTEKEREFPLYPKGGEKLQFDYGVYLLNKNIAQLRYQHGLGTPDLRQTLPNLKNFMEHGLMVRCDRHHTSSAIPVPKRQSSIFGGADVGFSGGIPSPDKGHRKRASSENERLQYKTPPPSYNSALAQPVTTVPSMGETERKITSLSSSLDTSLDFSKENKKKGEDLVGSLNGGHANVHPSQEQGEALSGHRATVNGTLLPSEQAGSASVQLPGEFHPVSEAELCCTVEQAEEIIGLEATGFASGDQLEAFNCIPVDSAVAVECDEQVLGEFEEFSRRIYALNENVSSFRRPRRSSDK
T1 sequence (Q8NEB9 whole entry, chain 1 of 4): as the sequence (Q8NEB9 whole entry, chain 1 of 4) above
T1 sequence (Q99570 whole entry, chain 2 of 4): as the sequence (Q99570 whole entry, chain 2 of 4) above
T1 sequence (Q14457 whole entry, chain 3 of 4): as the sequence (Q14457 whole entry, chain 3 of 4) above
T1 sequence (Q6ZNE5 whole entry, chain 4 of 4): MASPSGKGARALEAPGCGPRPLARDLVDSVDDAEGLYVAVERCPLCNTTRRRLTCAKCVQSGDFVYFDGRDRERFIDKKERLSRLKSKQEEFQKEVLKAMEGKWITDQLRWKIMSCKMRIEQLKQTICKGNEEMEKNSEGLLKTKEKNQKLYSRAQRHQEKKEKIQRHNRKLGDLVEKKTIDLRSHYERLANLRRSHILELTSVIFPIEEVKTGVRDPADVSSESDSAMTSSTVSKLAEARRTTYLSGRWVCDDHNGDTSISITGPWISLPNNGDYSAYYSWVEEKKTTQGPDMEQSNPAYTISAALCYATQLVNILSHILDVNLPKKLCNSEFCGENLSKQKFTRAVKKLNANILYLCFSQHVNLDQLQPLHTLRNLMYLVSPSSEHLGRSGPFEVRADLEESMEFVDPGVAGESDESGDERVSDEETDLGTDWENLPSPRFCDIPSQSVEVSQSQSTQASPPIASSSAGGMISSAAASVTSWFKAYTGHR
T5 sequence (Q8NEB9 whole entry): as the sequence (Q8NEB9 whole entry, chain 1 of 4) above
T3 sequence (Q8NEB9 whole entry, one chain of several): as the sequence (Q8NEB9 whole entry, chain 1 of 4) above
T4 sequence (Q99570 whole entry, one chain of several): as the sequence (Q99570 whole entry, chain 2 of 4) above

B1: Rab1a(1–204)-Q70L-C26S-C126S (natural protein)
chain: not shown
modifications: C-terminal cysteine coupled covalently to a maleimide-conjugated lipid (PE-MCC) in the membrane
notes: Loaded with GTP or GDP before coupling to GUVs or LUVs; also called Rab1a–GTP; Rab1a–GDP; source: E. coli C41(DE3)RIPL, purified (Glutathione Sepharose, TEV protease, HiTrap Q, heparin, size-exclusion chromatography); not shown: GST, N-terminal, cleaved
- binding result [1]: binds

- binding result [2]: binds
- binding result [3]: binds
- binding result [4]: binds
B2: Rab5a(1–212)-Q79L-C19S-C63S (natural protein, human, UniProt P20339 1-212, looked up)
chain: MASRGATRPNGPNTGNKISQFKLVLLGESAVGKSSLVLRFVKGQFHEFQESTIGAAFLTQTVSLDDTTVKFEIWDTAGLERYHSLAPMYYRGAQAAIVVYDITNEESFARAKNWVKELQRQASPNIVIALSGNKADLANKRAVDFQEAQSYADDNSLLFMETSAKTSMNVNEIFMAIAKKLPKNEPQNPGANSARGRGVDLTEPTQPTRNQC
modifications: C-terminal cysteine coupled covalently to a maleimide-conjugated lipid (PE-MCC) in the membrane
notes: Rab5a, human, residues 1–212; Loaded with GTP or GDP before coupling to GUVs or LUVs; also called Rab5a (Q79L); membrane-anchored Rab5a–GTP; source: E. coli C41(DE3)RIPL, purified (Ni-NTA, SUMO protease, size-exclusion chromatography); not shown: His-SUMO, N-terminal, cleaved
- binding result [1]: binds

- binding result [5]: binds
- binding result [6]: binds
B3: Rab5a S84BrCO6K (Rab5a_Q79L_1-212_C19S_C63S_S84TAG-His6) (natural protein, human, UniProt P20339 1-212, looked up)
chain: MASRGATRPNGPNTGNKISQFKLVLLGESAVGKSSLVLRFVKGQFHEFQESTIGAAFLTQTVSLDDTTVKFEIWDTAGLERYHKLAPMYYRGAQAAIVVYDITNEESFARAKNWVKELQRQASPNIVIALSGNKADLANKRAVDFQEAQSYADDNSLLFMETSAKTSMNVNEIFMAIAKKLPKNEPQNPGANSARGRGVDLTEPTQPTRNQC
modifications: BrCO6K (bromoalkyl-bearing lysine derivative, unnatural amino acid) at 84
notes: Rab5a, human, residues 1-212, amber codon at S84 read as BrCO6K; Loaded with GTP; Residue 84 is the lysine derivative BrCO6K, written as K; also called Rab5a–GTP–BrCO6K; Rab5a-84BrCO6K; source: E. coli DH10B, purified (Ni-NTA, size-exclusion chromatography)

- binding result [7]: binds
B4: Rab5a(1-211)-Q79L (natural protein, human, UniProt P20339 1-211, looked up)
chain: MASRGATRPNGPNTGNKICQFKLVLLGESAVGKSSLVLRFVKGQFHEFQESTIGAAFLTQTVCLDDTTVKFEIWDTAGLERYHSLAPMYYRGAQAAIVVYDITNEESFARAKNWVKELQRQASPNIVIALSGNKADLANKRAVDFQEAQSYADDNSLLFMETSAKTSMNVNEIFMAIAKKLPKNEPQNPGANSARGRGVDLTEPTQPTRNQ
notes: Rab5a, human, last 4 residues (CCSN) deleted, residues 1-211; Loaded with GTP; used soluble for HDX-MS; also called Rab5a-Q79L-GTP; Rab5a (Q79L) loaded with GTP; source: E. coli C41(DE3)RIPL, purified (as Rab5a(1–212)); not shown: His-SUMO, N-terminal, cleaved
